This test has as its target T1, biotinylated soluble human LDLR (sohLDLR) (human, UniProt P01130-1 22-788, biotin (biotinylated; site not stated)).
T1 construct: also called biotinylated LDLR; soluble biotinylated LDLR; source: bought: SinoBiological #10231-H08H-B
The test can be described thus: BLI. To be noted: both partners purified.

T1 sequence (P01130 22-788): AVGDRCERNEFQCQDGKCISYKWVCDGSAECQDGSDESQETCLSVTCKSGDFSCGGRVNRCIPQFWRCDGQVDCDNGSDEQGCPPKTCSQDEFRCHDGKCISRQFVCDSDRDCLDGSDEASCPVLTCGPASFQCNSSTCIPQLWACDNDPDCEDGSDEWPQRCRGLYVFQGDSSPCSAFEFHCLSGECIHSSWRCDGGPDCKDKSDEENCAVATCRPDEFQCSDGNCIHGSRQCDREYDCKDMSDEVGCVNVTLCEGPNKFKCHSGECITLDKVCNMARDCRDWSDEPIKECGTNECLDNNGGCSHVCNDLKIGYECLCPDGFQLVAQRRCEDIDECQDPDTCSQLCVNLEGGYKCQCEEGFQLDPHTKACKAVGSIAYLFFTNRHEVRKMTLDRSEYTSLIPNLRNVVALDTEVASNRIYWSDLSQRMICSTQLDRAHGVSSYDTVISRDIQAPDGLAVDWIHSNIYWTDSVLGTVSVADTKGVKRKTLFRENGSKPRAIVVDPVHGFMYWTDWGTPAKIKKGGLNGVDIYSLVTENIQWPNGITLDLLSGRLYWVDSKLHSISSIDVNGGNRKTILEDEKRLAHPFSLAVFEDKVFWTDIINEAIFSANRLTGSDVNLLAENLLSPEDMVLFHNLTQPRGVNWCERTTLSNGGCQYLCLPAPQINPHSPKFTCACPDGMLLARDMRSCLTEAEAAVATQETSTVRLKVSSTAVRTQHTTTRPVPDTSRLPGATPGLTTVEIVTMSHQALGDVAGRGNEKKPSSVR

B1: VSV G protein (Indiana strain) (natural protein)
chain: KFTIVFPHNQKGNWKNVPSNYHYCPSSSDLNWHNDLIGTAIQVKMPKSHKAIQADGWMCHASKWVTTCDFRWYGPKYITQSIRSFTPSVEQCKESIEQTKQGTWLNPGFPPQSCGYATVTDAEAVIVQVTPHHVLVDEYTGEWVDSQFINGKCSNYICPTVHNSTTWHSDYKVKGLCDSNLISMDITFFSEDGELSSLGKEGTGFRSNYFAYETGGKACKMQYCKHWGVRLPSGVWFEMADKDLFAAARFPECPEGSSISAPSQTSVDVSLIQDVERILDYSLCQETWSKIRAGLPISPVDLSYLAPKNPGTGPAFTIINGTLKYFETRYIRVDIAAPILSRMVGMISGTTTERELWDDWAPYEDVEIGPNGVLRTSSGYKFPLYMIGHGMLDSDLHLSSKAQVFEHPHIQDAASQLPDDESLFFGDTGLSKNPIELVEGWFSSWKSSIASFFFIIGLIIGLFLVLRVGIHLCIKLKHTKKRQIYTDIEMNRLGK
In the case of B1, the Kd (usually the concentration at which binding is half-saturated) is 54.3 nM.
